Assay results taken from the supplement of paper PMC9116672.
± gives the standard deviation of the averaged measurements or the uncertainty stated by the source.

What was measured:
[1] = duplex formation entropy ΔS (Van't Hoff fit of HRM Tm); higher = smaller entropy loss on duplex formation; settings: temperature for dG: 50 °C, NaCl: 500 mM (unadjusted)
Protocol: (§1)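 Duplex of the listed DNA strand with its complement, in 1x NNE buffer (500 mM NaCl, pH 7.0) with 1x EvaGreen. ΔH and ΔS come from a Van't Hoff linear fit of 1/Tm against ln(CT/4) over 1-20 uM, using HRM Tm values.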

[2] = duplex formation enthalpy ΔH (Van't Hoff fit of HRM Tm); higher = less exothermic duplex formation; settings: temperature for dG: 50 °C, NaCl: 500 mM (unadjusted)
Protocol: as §1

[3] = duplex formation free energy ΔG50 (Van't Hoff fit of HRM Tm); higher = less stable duplex; settings: temperature for dG: 50 °C, NaCl: 500 mM (unadjusted)
Protocol: as §1

[4] = duplex melting temperature (HRM, EvaGreen); higher = more stable duplex
Protocol: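 Listed DNA strand annealed 1:1 with its complementary strand (95 °C 5 min, 0.1 °C/s to 20 °C). Melted in 1x NNE buffer (500 mM NaCl, 10 mM Na2HPO4, 1 mM EDTA, pH 7.0) with 1x EvaGreen on a LightCycler96 (37 to 97 °C, 0.1 °C/s). Tm is the peak of -dF/dT at the stated total duplex concentration; 4 replicates are averaged. PS oligos are non-stereospecific (Rp/Sp mixtures).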

[5] = backbone: PO-PO (both strands phosphodiester DNA)
[6] = backbone: PS-PO (listed strand fully phosphorothioate, complement phosphodiester)
[7] = backbone: PS-PS (both strands fully phosphorothioate)
[8] = duplex concentration 1 µM, backbone: PO-PO (both strands phosphodiester DNA)
[9] = duplex concentration 1 µM, backbone: PS-PO (listed strand fully phosphorothioate, complement phosphodiester)
[10] = duplex concentration 1 µM, backbone: PS-PS (both strands fully phosphorothioate)
[11] = duplex concentration 2.5 µM, backbone: PO-PO (both strands phosphodiester DNA)
[12] = duplex concentration 2.5 µM, backbone: PS-PO (listed strand fully phosphorothioate, complement phosphodiester)
[13] = duplex concentration 2.5 µM, backbone: PS-PS (both strands fully phosphorothioate)
[14] = duplex concentration 5 µM, backbone: PO-PO (both strands phosphodiester DNA)
[15] = duplex concentration 5 µM, backbone: PS-PO (listed strand fully phosphorothioate, complement phosphodiester)
[16] = duplex concentration 5 µM, backbone: PS-PS (both strands fully phosphorothioate)
[17] = duplex concentration 7.5 µM, backbone: PO-PO (both strands phosphodiester DNA)
[18] = duplex concentration 7.5 µM, backbone: PS-PO (listed strand fully phosphorothioate, complement phosphodiester)
[19] = duplex concentration 7.5 µM, backbone: PS-PS (both strands fully phosphorothioate)
[20] = duplex concentration 10 µM, backbone: PO-PO (both strands phosphodiester DNA)
[21] = duplex concentration 10 µM, backbone: PS-PO (listed strand fully phosphorothioate, complement phosphodiester)
[22] = duplex concentration 10 µM, backbone: PS-PS (both strands fully phosphorothioate)
[23] = duplex concentration 15 µM, backbone: PO-PO (both strands phosphodiester DNA)
[24] = duplex concentration 15 µM, backbone: PS-PO (listed strand fully phosphorothioate, complement phosphodiester)
[25] = duplex concentration 15 µM, backbone: PS-PS (both strands fully phosphorothioate)
[26] = duplex concentration 20 µM, backbone: PO-PO (both strands phosphodiester DNA)
[27] = duplex concentration 20 µM, backbone: PS-PO (listed strand fully phosphorothioate, complement phosphodiester)
[28] = duplex concentration 20 µM, backbone: PS-PS (both strands fully phosphorothioate)

Sequence | duplex formation entropy ΔS [1, 5] | duplex formation entropy ΔS [1, 6] | duplex formation entropy ΔS [1, 7] | duplex formation enthalpy ΔH [2, 5] | duplex formation enthalpy ΔH [2, 6] | duplex formation enthalpy ΔH [2, 7] | duplex formation free energy ΔG50 [3, 5] | duplex formation free energy ΔG50 [3, 6] | duplex formation free energy ΔG50 [3, 7] | duplex melting temperature [4, 8] | duplex melting temperature [4, 9] | duplex melting temperature [4, 10] | duplex melting temperature [4, 11] | duplex melting temperature [4, 12] | duplex melting temperature [4, 13] | duplex melting temperature [4, 14] | duplex melting temperature [4, 15] | duplex melting temperature [4, 16] | duplex melting temperature [4, 17] | duplex melting temperature [4, 18] | duplex melting temperature [4, 19] | duplex melting temperature [4, 20] | duplex melting temperature [4, 21] | duplex melting temperature [4, 22] | duplex melting temperature [4, 23] | duplex melting temperature [4, 24] | duplex melting temperature [4, 25] | duplex melting temperature [4, 26] | duplex melting temperature [4, 27] | duplex melting temperature [4, 28]
AATGAGGAGTGAAATGG | -190 ± 9.7 cal/mol/K | -201 ± 3.6 cal/mol/K | -198 ± 4 cal/mol/K | -73.5 ± 3.3 kcal/mol | -75.7 ± 1.2 kcal/mol | -72.8 ± 1.3 kcal/mol | -12 ± 0.16 kcal/mol | -10.83 ± 0.037 kcal/mol | -8.817 ± 0.012 kcal/mol | 61.5 °C | 54.3 ± 0.28 °C | 45.74 ± 0.18 °C | 62.9 ± 0.89 °C | 57.29 ± 0.22 °C | 48.55 ± 0.12 °C | 65.1 ± 0.71 °C | 59.317 ± 0.05 °C | 50.54 ± 0.062 °C | 66.06 ± 0.59 °C | 60.42 ± 0.089 °C | 51.494 ± 0.05 °C | 67.14 ± 0.48 °C | 61.271 ± 0.056 °C | 52.36 ± 0.1 °C | 68.46 ± 0.62 °C | 62.43 ± 0.043 °C | 53.52 ± 0.054 °C | 69.63 ± 0.3 °C | 63.28 ± 0.098 °C | 54.406 ± 0.047 °C
CGATTTTGTCAAGCCT | – | -197 ± 8.1 cal/mol/K | -179 ± 5.5 cal/mol/K | – | -74 ± 2.7 kcal/mol | -66.5 ± 1.8 kcal/mol | – | -10.45 ± 0.08 kcal/mol | -8.766 ± 0.018 kcal/mol | 64.1 °C | 52.6 °C | 45 ± 0.64 °C | 64.84 ± 0.3 °C | 55.56 ± 0.073 °C | 48.27 ± 0.26 °C | 66.53 ± 0.27 °C | 57.82 ± 0.17 °C | 50.1 ± 0.15 °C | 67.75 ± 0.37 °C | 58.86 ± 0.14 °C | 51.53 ± 0.24 °C | 68.64 ± 0.33 °C | 59.74 ± 0.12 °C | 52.43 ± 0.088 °C | 70.02 ± 0.072 °C | 60.94 ± 0.033 °C | 53.55 ± 0.096 °C | 70.68 ± 0.17 °C | 61.81 ± 0.11 °C | 54.55 ± 0.15 °C
GCAGGAGCCGCGACCTG | -257 ± 15 cal/mol/K | -197 ± 5.2 cal/mol/K | -212 ± 5.6 cal/mol/K | -100 ± 5.4 kcal/mol | -77.6 ± 1.8 kcal/mol | -81.2 ± 1.9 kcal/mol | -17.2 ± 0.47 kcal/mol | -13.98 ± 0.13 kcal/mol | -12.81 ± 0.099 kcal/mol | – | 68.45 ± 0.49 °C | 62.56 ± 0.17 °C | 78.12 ± 0.35 °C | 71.31 ± 0.39 °C | 65.18 ± 0.082 °C | 79.75 ± 0.071 °C | 73.48 ± 0.49 °C | 66.99 ± 0.15 °C | 80.79 ± 0.2 °C | 74.78 ± 0.33 °C | 68.28 ± 0.17 °C | 81.76 ± 0.16 °C | 75.68 ± 0.15 °C | 69.26 ± 0.061 °C | 82.48 ± 0.27 °C | 76.9 ± 0.33 °C | 70.16 ± 0.069 °C | 83.26 ± 0.12 °C | 77.68 ± 0.29 °C | 71.01 ± 0.16 °C
GTGAAACAATGCTGTAG | -199 ± 8.8 cal/mol/K | -201 ± 6.2 cal/mol/K | -197 ± 6.4 cal/mol/K | -76.6 ± 3 kcal/mol | -75.5 ± 2 kcal/mol | -72.1 ± 2 kcal/mol | -12.1 ± 0.14 kcal/mol | -10.63 ± 0.061 kcal/mol | -8.41 ± 0.018 kcal/mol | 60.8 °C | – | 43.88 ± 0.29 °C | 62.87 ± 0.2 °C | 56.26 ± 0.25 °C | 46.82 ± 0.2 °C | 65.1 ± 0.46 °C | 58.51 ± 0.13 °C | 48.72 ± 0.15 °C | 66.14 ± 0.17 °C | 59.58 ± 0.12 °C | 49.72 ± 0.1 °C | 67.07 ± 0.17 °C | 60.43 ± 0.12 °C | 50.48 ± 0.19 °C | 68.31 ± 0.14 °C | 61.59 ± 0.25 °C | 51.63 ± 0.11 °C | 69.27 ± 0.11 °C | 62.36 ± 0.4 °C | 52.66 ± 0.18 °C
TGTAAGACTTCTGCCAGAAA | -339 ± 20 cal/mol/K | -231 ± 11 cal/mol/K | -196 ± 4.2 cal/mol/K | -126 ± 6.9 kcal/mol | -87.2 ± 3.7 kcal/mol | -73.5 ± 1.4 kcal/mol | -16.7 ± 0.45 kcal/mol | -12.4 ± 0.17 kcal/mol | -10.11 ± 0.025 kcal/mol | 69.04 ± 0.47 °C | – | 51.3 ± 0.66 °C | 70.48 ± 0.32 °C | 62.5 ± 0.74 °C | 54 ± 0.63 °C | 71.8 ± 0.086 °C | 64.36 ± 0.58 °C | 56.14 ± 0.29 °C | 72.66 ± 0.2 °C | 65.49 ± 0.58 °C | 57.54 ± 0.21 °C | 73.31 ± 0.13 °C | 66.18 ± 0.34 °C | 58.2 °C | 73.99 ± 0.12 °C | 67.16 ± 0.27 °C | – | – | 67.83 ± 0.18 °C | –
AACGAATGTCAGCAATT | -192 ± 8.3 cal/mol/K | -197 ± 3.4 cal/mol/K | -184 ± 5.7 cal/mol/K | -74.4 ± 2.8 kcal/mol | -74.7 ± 1.1 kcal/mol | -68.5 ± 1.9 kcal/mol | -12.5 ± 0.15 kcal/mol | -11.05 ± 0.039 kcal/mol | -9.166 ± 0.023 kcal/mol | 62.43 ± 0.59 °C | 55.7 ± 0.6 °C | 47.1 ± 0.49 °C | 64.93 ± 0.41 °C | 58.37 ± 0.15 °C | 49.91 ± 0.19 °C | 66.97 ± 0.37 °C | 60.36 ± 0.23 °C | 52.27 ± 0.13 °C | 68.1 ± 0.45 °C | 61.59 ± 0.21 °C | 53.4 ± 0.093 °C | 69.1 ± 0.15 °C | 62.44 ± 0.15 °C | 54.261 ± 0.011 °C | 70.52 ± 0.15 °C | 63.69 ± 0.16 °C | 55.38 ± 0.048 °C | 71.52 ± 0.29 °C | 64.46 ± 0.11 °C | 56.34 ± 0.12 °C
GCGGTTGGTGGCCAAC | -223 ± 10 cal/mol/K | -209 ± 7.1 cal/mol/K | -197 ± 7.2 cal/mol/K | -87 ± 3.6 kcal/mol | -80.6 ± 2.4 kcal/mol | -75.1 ± 2.4 kcal/mol | -14.9 ± 0.28 kcal/mol | -12.9 ± 0.13 kcal/mol | -11.29 ± 0.089 kcal/mol | – | 63.49 ± 0.42 °C | 56.4 ± 0.12 °C | 72.845 ± 0.0061 °C | 65.54 ± 0.56 °C | 59.65 ± 0.13 °C | 74.66 ± 0.1 °C | 67.67 ± 0.49 °C | 61.64 ± 0.16 °C | 75.96 ± 0.21 °C | 68.96 ± 0.29 °C | 62.663 ± 0.048 °C | 76.8 ± 0.26 °C | 69.81 ± 0.25 °C | 63.516 ± 0.06 °C | 77.93 ± 0.21 °C | 71.07 ± 0.17 °C | 64.64 ± 0.11 °C | 78.54 ± 0.17 °C | 71.91 ± 0.09 °C | 65.39 ± 0.087 °C
CGCGCGAGTATTTATAACCT | -372 ± 29 cal/mol/K | -290 ± 12 cal/mol/K | -234 ± 19 cal/mol/K | -138 ± 10 kcal/mol | -107 ± 4 kcal/mol | -86 ± 6.3 kcal/mol | -18.2 ± 0.69 kcal/mol | -13.7 ± 0.2 kcal/mol | -10.5 ± 0.12 kcal/mol | 71.21 ± 0.27 °C | – | 52.47 ± 0.24 °C | 72.26 ± 0.47 °C | 64.1 ± 0.75 °C | 55.09 ± 0.4 °C | 73.44 ± 0.43 °C | 65.57 ± 0.61 °C | 56.95 ± 0.38 °C | 74.53 ± 0.18 °C | 66.38 ± 0.52 °C | 57.68 ± 0.13 °C | 75.09 ± 0.087 °C | 67.07 ± 0.32 °C | 58.33 ± 0.069 °C | 75.71 ± 0.17 °C | 67.9 ± 0.21 °C | – | – | 68.39 ± 0.14 °C | –
CGGGATTTCTGGCATCATTGTCCT | -332 ± 20 cal/mol/K | -384 ± 18 cal/mol/K | -294 ± 11 cal/mol/K | -126 ± 7 kcal/mol | -141 ± 6.2 kcal/mol | -108 ± 3.9 kcal/mol | -19 ± 0.58 kcal/mol | -17.1 ± 0.38 kcal/mol | -13 ± 0.16 kcal/mol | 76 ± 0.48 °C | 67.9 ± 0.64 °C | 59.9 ± 0.76 °C | 77.25 ± 0.45 °C | 69.22 ± 0.5 °C | 61.87 ± 0.59 °C | 78.194 ± 0.017 °C | 70.21 ± 0.48 °C | 63.36 ± 0.43 °C | 79.16 ± 0.14 °C | 70.82 ± 0.46 °C | 64.38 ± 0.25 °C | 79.99 ± 0.12 °C | 71.58 ± 0.27 °C | 65.03 ± 0.12 °C | 80.96 ± 0.077 °C | 72.42 ± 0.15 °C | 65.67 ± 0.24 °C | 81.6 ± 0.082 °C | 72.86 ± 0.12 °C | 66.1 ± 0.11 °C
